Data reported in publication PMC9357639.

How the values were obtained:
STAT3 [1] = molecular target: STAT3 (UniProt P40763); experiment: size exclusion chromatography, fractions immunoblotted; conditions: sites T622
STAT3 [2] = molecular target: STAT3 (UniProt P40763); experiment: anti-Flag co-IP, Flag-STAT3 with HA-STAT3; conditions: reference: wild type STAT3; sites T622
STAT3 [3] = molecular target: STAT3 (UniProt P40763); experiment: anti-Flag IP of purified Flag-STAT3 and GST-STAT3; conditions: reference: wild type GST- and Flag-STAT3; sites T622

Sequence of STAT3 (P40763 whole entry, change not shown): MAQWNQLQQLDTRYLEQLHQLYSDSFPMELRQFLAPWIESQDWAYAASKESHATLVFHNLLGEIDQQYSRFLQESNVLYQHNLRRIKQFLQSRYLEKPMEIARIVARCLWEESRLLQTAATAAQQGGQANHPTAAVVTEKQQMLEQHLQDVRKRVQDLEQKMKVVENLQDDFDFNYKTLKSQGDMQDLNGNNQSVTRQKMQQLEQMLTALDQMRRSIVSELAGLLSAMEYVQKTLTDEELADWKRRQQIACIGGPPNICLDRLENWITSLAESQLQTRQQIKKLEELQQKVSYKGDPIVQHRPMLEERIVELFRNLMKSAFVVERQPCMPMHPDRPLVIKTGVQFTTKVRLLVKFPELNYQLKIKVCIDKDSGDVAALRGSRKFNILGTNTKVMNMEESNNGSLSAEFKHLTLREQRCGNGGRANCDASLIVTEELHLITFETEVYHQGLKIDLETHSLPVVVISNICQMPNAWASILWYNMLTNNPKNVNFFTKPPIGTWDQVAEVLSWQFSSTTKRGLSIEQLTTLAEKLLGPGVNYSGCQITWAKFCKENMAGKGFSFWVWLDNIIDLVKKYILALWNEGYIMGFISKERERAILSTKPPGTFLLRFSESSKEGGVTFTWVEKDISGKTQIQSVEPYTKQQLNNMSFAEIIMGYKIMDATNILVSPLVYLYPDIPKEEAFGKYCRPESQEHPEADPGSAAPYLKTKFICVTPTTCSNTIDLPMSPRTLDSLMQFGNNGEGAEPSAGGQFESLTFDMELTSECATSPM

For “STAT3 (from UniProt P40763) Flag-STAT3 T622A”, the “binding against the reference” value (STAT3 [1]; reference: wild type Flag-STAT3) was “stronger”.
For “STAT3 (from UniProt P40763) His-MST2 treated”, the “binding against the reference” value (STAT3 [1]; reference: untreated WT Flag-STAT3) was “same”.
In the case of STAT3 (from UniProt P40763) STAT3 T622A, the “binding against the reference” value (STAT3 [2]) is reported as “stronger”.
For “STAT3 (from UniProt P40763) T622A GST- and Flag-STAT3”, the “binding against the reference” value (STAT3 [3]) was “stronger”.
